In paper PMC11142733, “IgG hexamers initiate complement-dependent acute lung injury” (The Journal of Clinical Investigation, 2024):
Read-outs that look alike come from different tables or passages of the source.

Assays:
[1] = target: RGY-mutated 34-1-2S (RGY-hIgG1-34-1-2S) (mouse | human); assay: negative stain electron microscopy; antibody samples diluted to 0.01 mg/mL in 25 mM HEPES and 100 mM NaCl, on carbon-coated grids, stained with 0.75% uranyl formate; monomer to hexamer in solution
[2] = target: T1, K^b MHC class I monomer presenting SIINFEKL (Mus musculus, H-2b haplotype (H-2Kb), UniProt P01901;P01887); assay: SPR; mAbs bound via amine coupling to SensEye G Easy2Spot sensors; serial dilutions (0.5–200 nM) of MHC class I monomers injected; in triplicate; IBIS MX96 SPR imager; conditions: both partners purified
T1 construct: mouse MHC class I heavy chain H-2K^b of the bought monomer; beta-2-microglobulin of the bought monomer; presented peptide; Soluble monomer from a supplier; also called K^b MHC class I antigen from H2^b mice; copies: + +

[3] = target: T2, K^d MHC class I monomer presenting … (Mus musculus, H-2d haplotype (H-2Kd), UniProt P01902;P01887); assay: as above; conditions: both partners purified
T2 construct: mouse MHC class I heavy chain H-2K^d of the bought monomer; beta-2-microglobulin of the bought monomer; presented peptide; Soluble monomer from a supplier

[4] = target: T3, D^b MHC class I monomer presenting … (Mus musculus, H-2b haplotype (H-2Db), UniProt P01899;P01887); assay: as above; conditions: both partners purified
T3 construct: mouse MHC class I heavy chain H-2D^b of the bought monomer; beta-2-microglobulin of the bought monomer; presented peptide; Soluble monomer from a supplier; copies: + +

[5] = target: T4, D^d MHC class I monomer presenting IGPGRAFYA (mouse | ); assay: SPR
T4 chain 1: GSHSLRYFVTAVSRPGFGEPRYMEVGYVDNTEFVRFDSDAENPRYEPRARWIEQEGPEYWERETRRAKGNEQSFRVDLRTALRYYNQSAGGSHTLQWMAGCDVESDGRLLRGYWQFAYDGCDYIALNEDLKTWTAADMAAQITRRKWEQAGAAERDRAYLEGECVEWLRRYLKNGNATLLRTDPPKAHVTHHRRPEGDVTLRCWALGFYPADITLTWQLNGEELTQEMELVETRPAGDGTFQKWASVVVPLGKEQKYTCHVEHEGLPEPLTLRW
T4 chain 2: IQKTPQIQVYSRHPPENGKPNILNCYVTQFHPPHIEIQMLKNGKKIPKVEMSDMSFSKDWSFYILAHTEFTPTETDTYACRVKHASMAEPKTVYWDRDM
T4 chain 3: IGPGRAFYA

[6] = target: T5, K^d MHC class I monomer presenting VYLKTNVFL (mouse | ); assay: SPR
T5 chain 1: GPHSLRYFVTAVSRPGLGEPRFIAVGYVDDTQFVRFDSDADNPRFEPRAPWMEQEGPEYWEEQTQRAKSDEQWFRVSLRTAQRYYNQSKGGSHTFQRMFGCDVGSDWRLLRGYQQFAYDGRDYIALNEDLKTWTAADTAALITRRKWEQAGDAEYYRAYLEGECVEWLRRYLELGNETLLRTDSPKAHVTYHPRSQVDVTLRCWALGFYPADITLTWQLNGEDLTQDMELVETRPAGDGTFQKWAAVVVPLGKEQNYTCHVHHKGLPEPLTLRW
T5 chain 2: T4 chain 2
T5 chain 3: VYLKTNVFL

[7] = target: T6, K^b MHC class I monomer presenting SIINFEKL (mouse | ); assay: SPR
T6 chain 1: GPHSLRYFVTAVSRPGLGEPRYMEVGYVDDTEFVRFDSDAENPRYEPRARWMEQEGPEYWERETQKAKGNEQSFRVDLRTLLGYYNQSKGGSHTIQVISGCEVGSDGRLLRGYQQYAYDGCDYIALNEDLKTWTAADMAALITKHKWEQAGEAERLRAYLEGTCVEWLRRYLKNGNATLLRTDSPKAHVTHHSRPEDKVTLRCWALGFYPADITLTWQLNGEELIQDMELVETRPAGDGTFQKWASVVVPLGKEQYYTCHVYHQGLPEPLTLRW
T6 chain 2: T4 chain 2
T6 chain 3: SIINFEKL

[8] = target: T2, K^d MHC class I monomer presenting …

B1: RGY-mutated 34-1-2S (RGY-hIgG1-34-1-2S) (antibody, V domains shown)
VH: EVQLQQSGAEFVRPGASVKLSCTASGFNLKDDYMFWVKQRPEQGLEWIGWIAPDNGDTEYASKFQGKATITADTSSNTAYVQLSSLTSEDTAVYYCTTWGYYSYVNYWGQGTTLTVSS
VL: DIQMTQSPSSLSASLGERVSLTCRASQDIGSNLNWLQQEPDGTIKRLIYATYSLDSGVPKRFSGSRSGSDYSLTISSLESEDFVDYYCLQYASSPYTFGGGTKLEIK
stoichiometry N [1]: 6

B2: MHC class I alloantibody 34-1-2S (mouse IgG2a) (antibody, V domains shown)
VH: B1 VH
VL: B1 VL
notes: heavy-chain variable region of 34-1-2S; mouse IgG2a heavy-chain constant region; light chain variable region of 34-1-2S; light-chain constant region of the mouse antibody; Mouse IgG2a; also called anti-MHC class I clone 34-1-2S; control 34-1-2S; source: bought: Bio X Cell, catalog no; BE0180
binding result [2]: binds | binding result [3]: binds | binding result [4]: no binding (tested: 0.5–200 nM) | Kd [5]: 30 nM | Kd [6]: 9.1 nM | Kd [7]: 2490 nM

B3: Kd1 (antibody, V domains shown)
VH: EVLLVESGGDLVKPGGSLKLSCAASGFTFRTYAMSWVRQTPEKRLEWVATIGDDGSYTFYPDNVKGRFTISRDNAKNNLYLQMRHLKSEDTAIYFCARDGLFAYWGQGTLVTVSA
VL: DIQMTQSPSSLSASLGGKVTITCKASQDIKKNIAWYQYKPGKGPRLLIHYTSTLQPGISSRFSGSGSGRDYSFSISNLEPEDIATYYCLQYDSLLYTFGGGTKLEIK
binding result [8]: binds
